Article PMC2801267

Legend:
[1] = target: Ku70/80 heterodimer (Ku);DNA-PKcs (human? (HeLa cells);human? (HeLa cells), UniProt P12956;P13010;P78527 1-609;1-732;1-4128, |); experiment: biotin pull-down
[2] = target: Ku70/80 heterodimer (Ku) (human? (HeLa cells), UniProt P12956;P13010 1-609;1-732); experiment: biotin pull-down
Chain of Ku70/80 heterodimer (Ku) (P12956 whole entry, chain 1 of 2): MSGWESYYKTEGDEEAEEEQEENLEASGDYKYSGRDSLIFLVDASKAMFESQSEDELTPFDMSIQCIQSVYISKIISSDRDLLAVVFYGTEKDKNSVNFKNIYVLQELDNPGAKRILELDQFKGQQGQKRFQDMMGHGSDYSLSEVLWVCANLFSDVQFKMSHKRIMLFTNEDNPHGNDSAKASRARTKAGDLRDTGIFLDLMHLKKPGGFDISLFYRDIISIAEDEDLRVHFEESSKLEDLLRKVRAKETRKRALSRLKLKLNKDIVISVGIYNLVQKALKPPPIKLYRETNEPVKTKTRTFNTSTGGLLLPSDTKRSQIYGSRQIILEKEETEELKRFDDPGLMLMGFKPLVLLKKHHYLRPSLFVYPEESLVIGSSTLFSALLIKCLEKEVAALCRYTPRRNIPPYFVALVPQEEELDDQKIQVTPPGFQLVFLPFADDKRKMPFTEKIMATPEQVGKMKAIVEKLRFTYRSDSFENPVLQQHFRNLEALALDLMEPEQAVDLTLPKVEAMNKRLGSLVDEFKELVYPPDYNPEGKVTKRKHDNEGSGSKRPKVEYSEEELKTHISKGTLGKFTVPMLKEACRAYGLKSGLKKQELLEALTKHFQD
Chain of Ku70/80 heterodimer (Ku) (P13010 whole entry, chain 2 of 2): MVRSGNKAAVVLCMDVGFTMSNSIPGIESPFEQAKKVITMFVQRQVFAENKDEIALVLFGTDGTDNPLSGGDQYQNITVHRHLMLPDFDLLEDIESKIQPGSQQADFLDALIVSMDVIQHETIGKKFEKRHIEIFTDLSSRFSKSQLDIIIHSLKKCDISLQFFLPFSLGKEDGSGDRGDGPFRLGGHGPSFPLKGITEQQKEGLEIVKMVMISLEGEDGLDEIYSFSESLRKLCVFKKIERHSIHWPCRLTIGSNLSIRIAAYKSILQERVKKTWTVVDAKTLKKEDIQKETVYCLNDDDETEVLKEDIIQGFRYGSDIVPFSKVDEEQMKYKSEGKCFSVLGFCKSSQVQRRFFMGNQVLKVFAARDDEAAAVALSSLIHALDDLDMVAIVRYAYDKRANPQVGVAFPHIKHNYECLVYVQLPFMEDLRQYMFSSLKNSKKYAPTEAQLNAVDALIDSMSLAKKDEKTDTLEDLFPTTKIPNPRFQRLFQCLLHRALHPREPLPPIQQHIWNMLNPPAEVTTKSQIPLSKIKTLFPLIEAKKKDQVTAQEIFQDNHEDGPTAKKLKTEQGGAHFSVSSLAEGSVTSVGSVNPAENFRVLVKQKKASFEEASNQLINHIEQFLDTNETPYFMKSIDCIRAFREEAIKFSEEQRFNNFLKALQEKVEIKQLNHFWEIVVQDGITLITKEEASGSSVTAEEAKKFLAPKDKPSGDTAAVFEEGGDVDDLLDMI

B1: 1 x biotin 40-bp dsDNA (dsDNA)
DNA 1: GGATACACAACAGACCGCAACACTCAGATTACTTTTCGCC
DNA 2: GGCGAAAAGTAATCTGAGTGTTGCGGTCTGTTGTGTATCC
modifications: 5'-biotin on oligo 1
[1]
  binding result: binds
[2]
  binding result: binds
